According to patent publication US11857601 (dated 2024):

Biological target: Human CTLA-4/CD152, His tag (Sino Biological, Cat: 11159-H08H) (human, UniProt P16410 36-162)
Test: BLI

Chain of Human CTLA-4/CD152, His tag (Sino Biological, Cat: 11159-H08H) (P16410 36-162): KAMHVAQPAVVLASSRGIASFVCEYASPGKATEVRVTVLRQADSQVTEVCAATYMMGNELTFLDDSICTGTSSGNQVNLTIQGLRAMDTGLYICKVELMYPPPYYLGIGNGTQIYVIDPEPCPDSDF

Kd: 3.2 nM
B1: GI101C1 (hCD80-Fc) (Fc fusion)
chain: VIHVTKEVKEVATLSCGHNVSVEELAQTRIYWQKEKKMVLTMMSGDMNIWPEYKNRTIFDITNNLSIVILALRPSDEGTYECVVLKYEKDAFKREHLAEVTLSVKADFPTPSISDFEIPTSNIRRIICSTSGGFPEPHLSWLENGEELNAINTTVSQDPETELYAVSSKLDFNMTTNHSFMCLIKYGHLRVNQTFNWNTTKQEHFPDNGSGGGGSGGGGSGGGGSAESKYGPPCPPCPAPEAAGGPSVFLFPPKPKDQLMISRTPEVTCVVVDVSQEDPEVQFNWYVDGVEVHNAKTKPREEQFNSTYRVVSVLTVLHQDWLNGKEYKCKVSNKGLPSSIEKTISKAKGQPREPQVYTLPPSQEEMTKNQVSLTCLVKGFYPSDIAVEWESNGQPENNYKTTPPVLDSDGSFFLYSRLTVDKSRWQEGNVFSCSVLHEALHNHYTQKSLSLSLG
